{
  "source": "patent US20210388087A1",
  "about": "(Chugai, published 2021)",
  "data": [
    {"target": "T1, Human CD3eg linker (human)", "T1 construct": "Single chain: epsilon and gamma subunits of human CD3 joined by a 29-mer linker, Flag-tag at the C-terminus; also called recombinant human CD3", "T1 chain": "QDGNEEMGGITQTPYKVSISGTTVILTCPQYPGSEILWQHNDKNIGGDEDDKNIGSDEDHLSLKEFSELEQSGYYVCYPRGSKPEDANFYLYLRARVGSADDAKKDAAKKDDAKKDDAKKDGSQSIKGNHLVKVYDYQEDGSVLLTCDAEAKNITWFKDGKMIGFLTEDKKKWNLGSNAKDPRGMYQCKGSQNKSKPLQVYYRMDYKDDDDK", "experiment": "Biacore SPR, vs template H183/L072", "units": {"fold change of affinity": "fold"}, "values": [
      {"binder": "H183/L072 VH G26A (antibody, name in Kabat numbering, V domains shown) VH: QVQLVESGGGLVQPGRSLRLSCAASAFTFSNAWMHWVRQAPGKGLEWVAQIKDKGNAYAAYYAPSVKGRFTISRDDSKNSIYLQMNSLKTEDTAVYYCHYVHYASASTVLPAFGVDAWGQGTTVTVSS VL: DIVMTQSPLSLPVTPGEPASISCQASQELVHMNRNTYLHWYQQKPGQAPRLLIYKVSNRFPGVPDRFSGSGSGTDFTLKISRVEAEDVGVYYCAQGTSVPFTFGQGTKLEIK", "fold change of affinity": 0.5},
      {"binder": "H183/L072 VH A32D (antibody, name in Kabat numbering, V domains shown) VH: QVQLVESGGGLVQPGRSLRLSCAASGFTFSNDWMHWVRQAPGKGLEWVAQIKDKGNAYAAYYAPSVKGRFTISRDDSKNSIYLQMNSLKTEDTAVYYCHYVHYASASTVLPAFGVDAWGQGTTVTVSS VL: DIVMTQSPLSLPVTPGEPASISCQASQELVHMNRNTYLHWYQQKPGQAPRLLIYKVSNRFPGVPDRFSGSGSGTDFTLKISRVEAEDVGVYYCAQGTSVPFTFGQGTKLEIK", "fold change of affinity": 0},
      {"binder": "H183/L072 VH A32E (antibody, name in Kabat numbering, V domains shown) VH: QVQLVESGGGLVQPGRSLRLSCAASGFTFSNEWMHWVRQAPGKGLEWVAQIKDKGNAYAAYYAPSVKGRFTISRDDSKNSIYLQMNSLKTEDTAVYYCHYVHYASASTVLPAFGVDAWGQGTTVTVSS VL: DIVMTQSPLSLPVTPGEPASISCQASQELVHMNRNTYLHWYQQKPGQAPRLLIYKVSNRFPGVPDRFSGSGSGTDFTLKISRVEAEDVGVYYCAQGTSVPFTFGQGTKLEIK", "fold change of affinity": 0.1},
      {"binder": "H183/L072 VH A32F (antibody, name in Kabat numbering, V domains shown) VH: QVQLVESGGGLVQPGRSLRLSCAASGFTFSNFWMHWVRQAPGKGLEWVAQIKDKGNAYAAYYAPSVKGRFTISRDDSKNSIYLQMNSLKTEDTAVYYCHYVHYASASTVLPAFGVDAWGQGTTVTVSS VL: DIVMTQSPLSLPVTPGEPASISCQASQELVHMNRNTYLHWYQQKPGQAPRLLIYKVSNRFPGVPDRFSGSGSGTDFTLKISRVEAEDVGVYYCAQGTSVPFTFGQGTKLEIK", "fold change of affinity": 0},
      {"binder": "H183/L072 VH A32G (antibody, name in Kabat numbering, V domains shown) VH: QVQLVESGGGLVQPGRSLRLSCAASGFTFSNGWMHWVRQAPGKGLEWVAQIKDKGNAYAAYYAPSVKGRFTISRDDSKNSIYLQMNSLKTEDTAVYYCHYVHYASASTVLPAFGVDAWGQGTTVTVSS VL: DIVMTQSPLSLPVTPGEPASISCQASQELVHMNRNTYLHWYQQKPGQAPRLLIYKVSNRFPGVPDRFSGSGSGTDFTLKISRVEAEDVGVYYCAQGTSVPFTFGQGTKLEIK", "fold change of affinity": 0.3},
      {"binder": "H183/L072 VH A32H (antibody, name in Kabat numbering, V domains shown) VH: QVQLVESGGGLVQPGRSLRLSCAASGFTFSNHWMHWVRQAPGKGLEWVAQIKDKGNAYAAYYAPSVKGRFTISRDDSKNSIYLQMNSLKTEDTAVYYCHYVHYASASTVLPAFGVDAWGQGTTVTVSS VL: DIVMTQSPLSLPVTPGEPASISCQASQELVHMNRNTYLHWYQQKPGQAPRLLIYKVSNRFPGVPDRFSGSGSGTDFTLKISRVEAEDVGVYYCAQGTSVPFTFGQGTKLEIK", "fold change of affinity": 0.5},
      {"binder": "H183/L072 VH A32I (antibody, name in Kabat numbering, V domains shown) VH: QVQLVESGGGLVQPGRSLRLSCAASGFTFSNIWMHWVRQAPGKGLEWVAQIKDKGNAYAAYYAPSVKGRFTISRDDSKNSIYLQMNSLKTEDTAVYYCHYVHYASASTVLPAFGVDAWGQGTTVTVSS VL: DIVMTQSPLSLPVTPGEPASISCQASQELVHMNRNTYLHWYQQKPGQAPRLLIYKVSNRFPGVPDRFSGSGSGTDFTLKISRVEAEDVGVYYCAQGTSVPFTFGQGTKLEIK", "fold change of affinity": 0.1},
      {"binder": "H183/L072 VH A32K (antibody, name in Kabat numbering, V domains shown) VH: QVQLVESGGGLVQPGRSLRLSCAASGFTFSNKWMHWVRQAPGKGLEWVAQIKDKGNAYAAYYAPSVKGRFTISRDDSKNSIYLQMNSLKTEDTAVYYCHYVHYASASTVLPAFGVDAWGQGTTVTVSS VL: DIVMTQSPLSLPVTPGEPASISCQASQELVHMNRNTYLHWYQQKPGQAPRLLIYKVSNRFPGVPDRFSGSGSGTDFTLKISRVEAEDVGVYYCAQGTSVPFTFGQGTKLEIK", "fold change of affinity": 0.5},
      {"binder": "H183/L072 VH A32L (antibody, name in Kabat numbering, V domains shown) VH: QVQLVESGGGLVQPGRSLRLSCAASGFTFSNLWMHWVRQAPGKGLEWVAQIKDKGNAYAAYYAPSVKGRFTISRDDSKNSIYLQMNSLKTEDTAVYYCHYVHYASASTVLPAFGVDAWGQGTTVTVSS VL: DIVMTQSPLSLPVTPGEPASISCQASQELVHMNRNTYLHWYQQKPGQAPRLLIYKVSNRFPGVPDRFSGSGSGTDFTLKISRVEAEDVGVYYCAQGTSVPFTFGQGTKLEIK", "fold change of affinity": 0},
      {"binder": "H183/L072 VH A32M (antibody, name in Kabat numbering, V domains shown) VH: QVQLVESGGGLVQPGRSLRLSCAASGFTFSNMWMHWVRQAPGKGLEWVAQIKDKGNAYAAYYAPSVKGRFTISRDDSKNSIYLQMNSLKTEDTAVYYCHYVHYASASTVLPAFGVDAWGQGTTVTVSS VL: DIVMTQSPLSLPVTPGEPASISCQASQELVHMNRNTYLHWYQQKPGQAPRLLIYKVSNRFPGVPDRFSGSGSGTDFTLKISRVEAEDVGVYYCAQGTSVPFTFGQGTKLEIK", "fold change of affinity": 0},
      {"binder": "H183/L072 VH A32N (antibody, name in Kabat numbering, V domains shown) VH: QVQLVESGGGLVQPGRSLRLSCAASGFTFSNNWMHWVRQAPGKGLEWVAQIKDKGNAYAAYYAPSVKGRFTISRDDSKNSIYLQMNSLKTEDTAVYYCHYVHYASASTVLPAFGVDAWGQGTTVTVSS VL: DIVMTQSPLSLPVTPGEPASISCQASQELVHMNRNTYLHWYQQKPGQAPRLLIYKVSNRFPGVPDRFSGSGSGTDFTLKISRVEAEDVGVYYCAQGTSVPFTFGQGTKLEIK", "fold change of affinity": 0.5},
      {"binder": "H183/L072 VH A32P (antibody, name in Kabat numbering, V domains shown) VH: QVQLVESGGGLVQPGRSLRLSCAASGFTFSNPWMHWVRQAPGKGLEWVAQIKDKGNAYAAYYAPSVKGRFTISRDDSKNSIYLQMNSLKTEDTAVYYCHYVHYASASTVLPAFGVDAWGQGTTVTVSS VL: DIVMTQSPLSLPVTPGEPASISCQASQELVHMNRNTYLHWYQQKPGQAPRLLIYKVSNRFPGVPDRFSGSGSGTDFTLKISRVEAEDVGVYYCAQGTSVPFTFGQGTKLEIK", "fold change of affinity": 0},
      {"binder": "H183/L072 VH A32Q (antibody, name in Kabat numbering, V domains shown) VH: QVQLVESGGGLVQPGRSLRLSCAASGFTFSNQWMHWVRQAPGKGLEWVAQIKDKGNAYAAYYAPSVKGRFTISRDDSKNSIYLQMNSLKTEDTAVYYCHYVHYASASTVLPAFGVDAWGQGTTVTVSS VL: DIVMTQSPLSLPVTPGEPASISCQASQELVHMNRNTYLHWYQQKPGQAPRLLIYKVSNRFPGVPDRFSGSGSGTDFTLKISRVEAEDVGVYYCAQGTSVPFTFGQGTKLEIK", "fold change of affinity": 0.4},
      {"binder": "H183/L072 VH A32R (antibody, name in Kabat numbering, V domains shown) VH: QVQLVESGGGLVQPGRSLRLSCAASGFTFSNRWMHWVRQAPGKGLEWVAQIKDKGNAYAAYYAPSVKGRFTISRDDSKNSIYLQMNSLKTEDTAVYYCHYVHYASASTVLPAFGVDAWGQGTTVTVSS VL: DIVMTQSPLSLPVTPGEPASISCQASQELVHMNRNTYLHWYQQKPGQAPRLLIYKVSNRFPGVPDRFSGSGSGTDFTLKISRVEAEDVGVYYCAQGTSVPFTFGQGTKLEIK", "fold change of affinity": 0.6},
      {"binder": "H183/L072 VH A32S (antibody, name in Kabat numbering, V domains shown) VH: QVQLVESGGGLVQPGRSLRLSCAASGFTFSNSWMHWVRQAPGKGLEWVAQIKDKGNAYAAYYAPSVKGRFTISRDDSKNSIYLQMNSLKTEDTAVYYCHYVHYASASTVLPAFGVDAWGQGTTVTVSS VL: DIVMTQSPLSLPVTPGEPASISCQASQELVHMNRNTYLHWYQQKPGQAPRLLIYKVSNRFPGVPDRFSGSGSGTDFTLKISRVEAEDVGVYYCAQGTSVPFTFGQGTKLEIK", "fold change of affinity": 0.4},
      {"binder": "H183/L072 VH A32T (antibody, name in Kabat numbering, V domains shown) VH: QVQLVESGGGLVQPGRSLRLSCAASGFTFSNTWMHWVRQAPGKGLEWVAQIKDKGNAYAAYYAPSVKGRFTISRDDSKNSIYLQMNSLKTEDTAVYYCHYVHYASASTVLPAFGVDAWGQGTTVTVSS VL: DIVMTQSPLSLPVTPGEPASISCQASQELVHMNRNTYLHWYQQKPGQAPRLLIYKVSNRFPGVPDRFSGSGSGTDFTLKISRVEAEDVGVYYCAQGTSVPFTFGQGTKLEIK", "fold change of affinity": 0},
      {"binder": "H183/L072 VH A32V (antibody, name in Kabat numbering, V domains shown) VH: QVQLVESGGGLVQPGRSLRLSCAASGFTFSNVWMHWVRQAPGKGLEWVAQIKDKGNAYAAYYAPSVKGRFTISRDDSKNSIYLQMNSLKTEDTAVYYCHYVHYASASTVLPAFGVDAWGQGTTVTVSS VL: DIVMTQSPLSLPVTPGEPASISCQASQELVHMNRNTYLHWYQQKPGQAPRLLIYKVSNRFPGVPDRFSGSGSGTDFTLKISRVEAEDVGVYYCAQGTSVPFTFGQGTKLEIK", "fold change of affinity": 0.9},
      {"binder": "H183/L072 VH A32W (antibody, name in Kabat numbering, V domains shown) VH: QVQLVESGGGLVQPGRSLRLSCAASGFTFSNWWMHWVRQAPGKGLEWVAQIKDKGNAYAAYYAPSVKGRFTISRDDSKNSIYLQMNSLKTEDTAVYYCHYVHYASASTVLPAFGVDAWGQGTTVTVSS VL: DIVMTQSPLSLPVTPGEPASISCQASQELVHMNRNTYLHWYQQKPGQAPRLLIYKVSNRFPGVPDRFSGSGSGTDFTLKISRVEAEDVGVYYCAQGTSVPFTFGQGTKLEIK", "fold change of affinity": 0.1},
      {"binder": "H183/L072 VH A32Y (antibody, name in Kabat numbering, V domains shown) VH: QVQLVESGGGLVQPGRSLRLSCAASGFTFSNYWMHWVRQAPGKGLEWVAQIKDKGNAYAAYYAPSVKGRFTISRDDSKNSIYLQMNSLKTEDTAVYYCHYVHYASASTVLPAFGVDAWGQGTTVTVSS VL: DIVMTQSPLSLPVTPGEPASISCQASQELVHMNRNTYLHWYQQKPGQAPRLLIYKVSNRFPGVPDRFSGSGSGTDFTLKISRVEAEDVGVYYCAQGTSVPFTFGQGTKLEIK", "fold change of affinity": 0},
      {"binder": "H183/L072 VH A54D (antibody, name in Kabat numbering, V domains shown) VH: QVQLVESGGGLVQPGRSLRLSCAASGFTFSNAWMHWVRQAPGKGLEWVAQIKDKGNDYAAYYAPSVKGRFTISRDDSKNSIYLQMNSLKTEDTAVYYCHYVHYASASTVLPAFGVDAWGQGTTVTVSS VL: DIVMTQSPLSLPVTPGEPASISCQASQELVHMNRNTYLHWYQQKPGQAPRLLIYKVSNRFPGVPDRFSGSGSGTDFTLKISRVEAEDVGVYYCAQGTSVPFTFGQGTKLEIK", "fold change of affinity": 0.9}
    ]}
  ]
}
